Our source for the percent reduction of TAP-selected PA by DDX21 (1 μg plasmid) and percent reduction of TAP-selected PB2 by DDX21 (1 μg plasmid) values is PMC4039189.

The target of the test is C-terminal TAP-tagged PB1 (influenza A virus, strain not stated). In words: pull-down.

B1: DDX21, plasmid-expressed (pcDNA3 plasmid expressing DDX21) (natural protein)
chain: MPGKLRSDAGLESDTAMKKGETLRKQTEEKEKKEKPKSDKTEEIAEEEETVFPKAKQVKKKAEPSEVDMNSPKSKKAKKKEEPSQNDISPKTKSLRKKKEPIEKKVVSSKTKKVTKNEEPSEEEIDAPKPKKMKKEKEMNGETREKSPKLKNGFPHPEPDCNPSEAASEESNSEIEQEIPVEQKEGAFSNFPISEETIKLLKGRGVTFLFPIQAKTFHHVYSGKDLIAQARTGTGKTFSFAIPLIEKLHGELQDRKRGRAPQVLVLAPTRELANQVSKDFSDITKKLSVACFYGGTPYGGQFERMRNGIDILVGTPGRIKDHIQNGKLDLTKLKHVVLDEVDQMLDMGFADQVEEILSVAYKKDSEDNPQTLLFSATCPHWVFNVAKKYMKSTYEQVDLIGKKTQKTAITVEHLAIKCHWTQRAAVIGDVIRVYSGHQGRTIIFCETKKEAQELSQNSAIKQDAQSLHGDIPQKQREITLKGFRNGSFGVLVATNVAARGLDIPEVDLVIQSSPPKDVESYIHRSGRTGRAGRTGVCICFYQHKEEYQLVQVEQKAGIKFKRIGVPSATEIIKASSKDAIRLLDSVPPTAISHFKQSAEKLIEEKGAVEALAAALAHISGATSVDQRSLINSNVGFVTMILQCSIEMPNISYAWKELKEQLGEEIDSKVKGMVFLKGKLGVCFDVPTASVTEIQEKWHDSRRWQLSVATEQPELEGPREGYGGFRGQREGSRGFRGQRDGNRRFRGQREGSRGPRGQRSGGGNKSNRSQNKGQKRSFSKAFGQ
The molecule B1 showed a percent reduction of TAP-selected PA by DDX21 (1 μg plasmid) of 75% and a percent reduction of TAP-selected PB2 by DDX21 (1 μg plasmid) of 65%.
